# From the supplement of paper PMC10567573
# ± gives the standard deviation.
# Experiment: protein stability index of a GFP-peptide fusion (GPS, HEK-293T) (PSI 1-6); higher = more stable
# [1] = treatment: DMSO, c terminus: a fixed tail appended
# [2] = treatment: MLN4924 1 uM, 8 h, c terminus: a fixed tail appended
# [3] = treatment: DMSO, c terminus: native
# [4] = treatment: MLN4924 1 uM, 8 h, c terminus: native
# 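Further: 24-mer peptide tiles fused after GFP, lentivirally expressed, FACS-sorted into six equal bins by GFP/DsRed ratio, decoded by Illumina sequencing, PSI is the read-weighted mean bin number.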
Sequence,protein stability index [1],protein stability index [2],protein stability index [3],protein stability index [4]
TGFLIIILAIIAKEGDCAPEEKIW [MAGEA6],2.93 ± 0.65,2.71 ± 0.61,,
RRLRDMVERPHSGLPGKVFACLSV [KCNG1],2.47 ± 0.49,2.4 ± 0.49,,
SYMLQDSLEHVQLFDLMRRMLEFD [CLK3],2.35 ± 0.027,2.47 ± 0.21,,
LQDMLDGFIKKFVLCPECENPETD [EIF5],3.19 ± 0.43,3.34 ± 0.12,,
FDIARIERCNQLLRALKLVITALK [ZER1],2.33 ± 0.6,2.41 ± 0.37,,
LDTERPVQKRARSGPQPRLPPCLL [TRIB3],3.89 ± 0.41,4.1 ± 0.3,,
RSHPDNAIPIKSWFSDPSDTALLN [CTDNEP1],3.73 ± 0.18,3.87 ± 0.18,,
ERTQLRLESLEDTHIMKGEDDALS [TRIB1],5.27 ± 0.21,5.34 ± 0.41,,
MNHYKKTTLEIHNTEERQKRQVTH [PTPN9],4.52 ± 0.06,4.49 ± 0.36,,
YRHQRLHTGERPYECTVCKKRFTR [ZNF449],2.75 ± 0.56,3.5 ± 0.53,,
ILSGLDDMSIGGNLSKTQNMERFG [CDC14A],3.24 ± 0.22,3.08 ± 0.26,,
KDKLGVWVYKNKLIFFGGYGYLPE [KLHDC2],2.25 ± 0.59,3.11 ± 1.6,,
ANQLIDIISSDELNVRSEEQVFNA [KLHL20],4.42 ± 0.21,4.34 ± 0.25,,
SSMKKFCRPLLPSCTTRLCQEEQL [PSD2],2.88 ± 0.29,2.98 ± 0.15,,
LLEQGAQVNRRSAKGNTALHDCAE [FEM1A],4.81 ± 0.22,4.9 ± 0.23,,
LANLRGLSEEERSEKAMLRSRIEE [CCDC89],4.67 ± 0.22,4.68 ± 0.12,,
TLAQAHFNNGEYAEAEALYSAYIR [TTC32],2.98 ± 0.27,3.39 ± 0.21,,
AVEGLTEAEEEELRAELTKVEEEI [TPD52L2],5.6 ± 0.25,5.54 ± 0.12,,
HQMGVVHRDLKPENLLLASKLKGA [CAMK2A],3.73 ± 0.21,3.82 ± 0.12,,
TEPETAPTTEPETEPEDDRGPVVP [GNAS],5.61 ± 0.14,5.63 ± 0.27,,
RTHTGEKPYTCSVCGKSFSRTTCL [ZNF8],2.92 ± 0.31,3.35 ± 0.54,,
WEWNELIPQGICPVGRSWHSLTPV [KLHDC2],2.16 ± 0.27,2.27 ± 0.21,,
LYLQLAICSSLQNLEKTIFCLQKL [C8orf76],3.12 ± 0.69,3.2 ± 0.099,,

Sequence,protein stability index [1],protein stability index [2],protein stability index [3],protein stability index [4]
RTELLKDAIGEGKVTLRIRNVRFS [MOG],2.68 ± 0.4,2.79 ± 0.42,,
RYVSNWDFFIVGCEVIFCVFIFYY [PKD2L1],3.07 ± 0.34,2.89 ± 0.32,,
SLCNLEESITSAGRDDLESFQLEI [FAM98B],3.26 ± 0.16,3.45 ± 0.19,,
LWPTPGHLSPLVVHRQLSHLYAEP [ESR2],2.38 ± 0.24,2.54 ± 0.3,,
TLAGLRSRRLKQPKAFCLRDVAP [MIR22HG],,,3.11 ± 0.44,2.99 ± 0.21
GNSTQATVRDAVVGRPSMDKKAQ [ATL3],,,5.28 ± 0.13,5.21 ± 0.23
QNECQVLKLLNHPNVIEYYENFLE [NEK8],2.56 ± 0.12,2.67 ± 0.27,,
KPKMYFMTMIVSLAAVAWVGQQVH [ARL6IP1],2.83 ± 0.48,3.28 ± 0.69,,
VNSNKVVMSGVKCSGTELSLAHCR [LOXL2],3.38 ± 1,2.95 ± 0.43,,
PVDSVLFYAITTLHNLLLHQEGAK [CTNNB1],2.81 ± 0.48,2.71 ± 0.17,,
ENLSVPVIGALLRFNQAILVSRHD [LPCAT4],2.43 ± 0.61,2.5 ± 0.34,,
VKVIMDALDERAKVLHEDKQTREQ [TRIM29],3.84 ± 0.098,3.84 ± 0.39,,
AREVKLLLLGAGESGKSTIVKQMK [GNAI1],2.73 ± 0.25,2.62 ± 0.26,,
DTFKVPKEMFTVGCCVFAFLVGLL [SLC6A17],2.3 ± 0.51,2.21 ± 0.6,,
YGHPAGIDYKTTTILLDGRRVKLQ [RAB40B],2.87 ± 0.28,3.14 ± 0.11,,
MPTQEVQELPIPSKLLEFLSYRI [WSB1],,,2.82 ± 0.2,3.05 ± 0.12
CVPGQVFSPDGPSRFRKAYKPEQP [LOXL2],3.17 ± 0.19,3.33 ± 0.091,,
FQESASTPETRAKFTQDNLCRAQR [TEKT4],4.48 ± 0.18,4.4 ± 0.25,,
DLSGIQTSDAAFLTQWKDSLVSLV [ZER1],2.37 ± 0.33,2.49 ± 0.26,,
QMAEKNRRDAETWFLSKTEELNKE [KRT16],5.02 ± 0.57,4.81 ± 0.35,,
KEYTTRTQAPPSVILGVTNPFFAK [DENND6A],2.81 ± 0.24,2.738 ± 0.021,,
PALLEATGGAAGAGGAGRGEDEEN [KCTD13],5.62 ± 0.24,5.64 ± 0.24,,
SSGPGNSQNSFLVQEVMEEEWNAL [RPAIN],4.88 ± 0.2,4.92 ± 0.25,,

Sequence,protein stability index [1],protein stability index [2],protein stability index [3],protein stability index [4]
AMPDPTVPDSDIKALTTLCDLADR [ESRRG],5.11 ± 0.28,5.15 ± 0.16,,
YAPEAPYTSPDKLKDIFMFITRQL [PDS5B],2.59 ± 0.28,1.97 ± 0.34,,
FSHDLTLERKCEKRSVYIDARDEE [ZC3H15],4.47 ± 0.24,4.64 ± 0.34,,
VSHPIIYRGAVYADNMEFEQCIKL [FEM1B],2.5 ± 0.48,2.5 ± 0.25,,
AIRRRNVRGEDSGRKPERRRLKTT [DAPK3],4.644 ± 0.043,4.69 ± 0.9,,
AGRPRAERRPRRVEAERPHSLIGV [FAM189A2],4.05 ± 0.15,3.94 ± 0.21,,
NMKNGANDVKHHRWFRSVDWEAVP [PRKX],2.95 ± 0.33,3.08 ± 0.33,,
DTMQNIESTIVELGSIFQQLAHMV [STX5],2.47 ± 0.13,2.52 ± 0.38,,
LSSEMNTSTVNSAREELMESRMRI [LMNB1],4.48 ± 0.29,4.27 ± 0.17,,
RKQILLRGKLKKTEEELRRIQTQK [ZC2HC1C],3.99 ± 0.24,4.2 ± 0.26,,
HGSGSHPGPASGPGPDTGPDSELS [SPAG8],5.41 ± 0.25,5.37 ± 0.36,,
SMNWGINLLISLTFLTVTDLIGLP [SLC2A12],3.3 ± 0.18,3.02 ± 0.12,,
ESLQELRLLLAGAEVQAKLENAEV [HES6],2.84 ± 0.41,3.15 ± 0.4,,
HQPKGLEEENAQLRGALQQGEAFQ [PBXIP1],5.07 ± 0.24,5.05 ± 0.12,,
ELGEEPQPRDEEEAELELLRQFDL [POLD4],5.41 ± 0.26,5.51 ± 0.3,,
RSWAMLFASGGFQVKLYDIEQQQI [CRYL1],2.16 ± 0.34,2.28 ± 0.67,,
LRELGHAEHEITELTATFTKFDRD [PKD2L1],4.48 ± 0.28,4.59 ± 0.25,,
LIKAKSQARLEEQQRLAHLEDKLR [LRRC45],3.77 ± 0.25,3.96 ± 0.25,,
LLDSMCPASTPSVLSSEQEFQMFP [ETS2],3.94 ± 0.16,4.07 ± 0.28,,
VLQERVRIFAHKIYLSTSSSKFYD [RHOBTB2],2.6 ± 0.54,2.33 ± 0.46,,
GKSPSITFEYTLLQPPHESRPQPI [ADAMTSL2],2.83 ± 0.4,2.83 ± 0.29,,
REARKRALARKQAQEQLRPQTPEP [RSPH3],5.04 ± 0.28,5.12 ± 0.15,,
FGGQNAHNQIAIYAHQPRTADEIP [FUT8],3.43 ± 0.23,3.65 ± 0.33,,

Sequence,protein stability index [1],protein stability index [2],protein stability index [3],protein stability index [4]
NKILVPLVLLRQMLLELTRRGQEP [BCL2L13],2.64 ± 1.6,2.92 ± 0.92,,
KKEKIIEDKTFGLKNKKGAKQQKF [ZC3H15],4.5 ± 0.27,4.33 ± 0.19,,
IRQYRLKKISKEEKTPGCVKIKKC [KRAS],,3.31 ± 0.24,,
WLEDEPGRGAQGENERVRGLETGD [ZSWIM9],5.49 ± 0.32,5.48 ± 0.18,,
RKLSPTEPKNYGSYSTQASAAAAT [SCAMP3],4.37 ± 0.17,4.38 ± 0.14,,
RSSSCGDTELLGQATLPVGSPSRP [C2CD2L],5.04 ± 0.15,5.04 ± 0.13,,
LEAQVESLKEELMCLKKNHEEEVS [KRT36],5.47 ± 0.42,5.46 ± 0.15,,
GSSASTSPAPLDTCPSSSTASSIS [DYRK1B],5.22 ± 0.12,5.3 ± 0.078,,
FWYREALDISDSISESGGLNWKMT [SLC6A17],2.17 ± 0.34,1.92 ± 0.32,,
VSQHWATWALYNLVSVYPDKYCPL [ZER1],3.07 ± 0.34,2.74 ± 0.41,,
SAPYSAAFLELPHGSGGSGYPAAP [TBX6],3.27 ± 0.15,3.55 ± 0.27,,
ILFLVIGGMLNFMMHDQRTGPAWN [SOAT2],3.27 ± 0.46,3.26 ± 0.55,,
FLGSTEVEQPKGTEVVRDAVRKLK [GULP1],4.62 ± 0.24,4.62 ± 0.16,,
THLEGDTVQIICNTGYRLQNNENN [CFHR2],3.79 ± 0.22,3.87 ± 0.14,,
AGDVIFLLSRINKDWLEGTVRGAT [NCF4],3.21 ± 0.31,3.2 ± 0.4,,
TLIPTCKFYTWLWGVFYYFVSALG [SCD],2 ± 0.52,2.13 ± 0.15,,
RALATSNARAQQRAAAQQRRSFLN [GNAS],4.02 ± 0.15,4.3 ± 0.13,,
MKKAKEQLKIRKSNQIPTEVRSKA [FUNDC2],4.59 ± 0.34,4.76 ± 0.45,,
MNGGMSLVAFVLLNECVGTAYWAL [SLC22A15],3.91 ± 2,3.13 ± 0.38,,
PSPPAAPSVADNLLASSDAALSAS [SERTAD1],5.25 ± 0.21,5.25 ± 0.094,,
